From publication PMC5957528, “Boosting ATM activity alleviates aging and extends lifespan in a mouse model of progeria” (eLife, 2018)

Legend:
MDM2 = MDM2 (UniProt Q00987); experiment: anti-Flag co-IP, MDM2 immunoblot; conditions: reference: Flag-SIRT6 wild type; sites S112
SIRT6 = SIRT6 (UniProt Q8N6T7); experiment: anti-HA co-IP, ATM immunoblot; conditions: reference: Flag-ATM wild type; sites S1981
His-SIRT6 = molecular target: T1, His-SIRT6 (human, UniProt Q8N6T7 1-355); experiment: pull-down; GST pull-down: bacterially expressed 6 × His SIRT6 incubated separately with GST-ATM fragments in 150 mM NaCl, 20 mM Tris-HCl pH 7.5, 5 mM MgCl2, 0.2 mM EDTA, 10% glycerol, 0.2% NP-40; Glutathione Sepharose; washed with TEN buffer (300 mM NaCl); conditions: both partners purified
T1 construct: SIRT6, human; also called 6 × His tagged SIRT6; purified His-SIRT6; source: bacterially expressed, purified
T1 sequence (Q8N6T7 whole entry, the tested form may be a part): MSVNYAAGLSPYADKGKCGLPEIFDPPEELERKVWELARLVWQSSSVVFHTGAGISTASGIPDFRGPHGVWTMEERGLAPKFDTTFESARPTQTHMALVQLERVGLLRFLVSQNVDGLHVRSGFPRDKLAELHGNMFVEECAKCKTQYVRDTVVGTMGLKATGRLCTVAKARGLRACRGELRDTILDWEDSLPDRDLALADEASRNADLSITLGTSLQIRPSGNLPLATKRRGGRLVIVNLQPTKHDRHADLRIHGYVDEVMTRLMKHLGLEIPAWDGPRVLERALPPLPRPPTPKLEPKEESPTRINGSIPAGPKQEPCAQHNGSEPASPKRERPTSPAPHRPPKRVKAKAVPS

SIRT6 (from UniProt Q8N6T7) Flag-SIRT6 S112A
binding against the reference (MDM2): stronger

ATM (from UniProt Q13315) Flag-ATM S1981A
binding against the reference (SIRT6): lost

B1: GST-ATM-4 (residues 770–1102) (domain or fragment, human, UniProt Q13315 770-1102, looked up)
chain: EFRIGSLRNMMQLCTRCLSNCTKKSPNKIASGFFLRLLTSKLMNDIADICKSLASFIKKPFDRGEVESMEDDTNGNLMEVEDQSSMNLFNDYPDSSVSDANEPGESQSTIGAINPLAEEYLSKQDLLFLDMLKFLCLCVTTAQTNTVSFRAADIRRKLLMLIDSSTLEPTKSLHLHMYLMLLKELPGEEYPLPMEDVLELLKPLSNVCSLYRRDQDVCKTILNHVLHVVKNLGQSNMDSENTRDAQGQFLTVIGAFWHLTKERKYIFSVRMALVNCLKTLLEADPYSKWAILNVMGKDFPVNEVFTQFLADNHHQVRMLAAESINRLFQDTKG
notes: source: recombinant GST fusion (pGEX4T-3 vector)
binding result (His-SIRT6): binds
